Laboratory results published in patent publication US20170095417A1, “Percutaneous Implement and Method for Manufacturing” (priority 2015, published 2017).

Tests used:
rat = assay: Micro payload injected in rat, hypotension and dye distribution (Example 5); format: in vivo; details: half-shell Maltose cone mixed 1 mg Alprostadil, indicates vasodilation
Experimental: A sample of micro payload integrated a 1 mm length conic micro-head with drug and 2 mm length micro-stem without drug was injected in rat.

skin [1] = details: in vivo
[2] = format: physicochemical
From the text: (§1) Quadrangular pyramidal micro-head of 0.7 mm length and 0.1 mm bottom side length was contained anhydrous and amorphous oblate spheroidal Maltose chip of 0.02 mm length and 0.01 mm diameter. The chip was made from mixing material of 50% Maltose and 50% Hyaluronic acid included 30% albumen which was non-heat resistance limited in 70 degree centigrade. Three micro-heads were installed in three lengths of micro implements of 1 mm, 2 mm, and 3 mm.

skin [3] = details: rat, in vivo
From the text: as §1

Molecule: CCCCC[C@H](O)/C=C/[C@H]1[C@H](O)CC(=O)[C@@H]1CCCCCCC(=O)O [Alprostadil]
- hypotension (rat): 20 mmHg

Molecule: Hyaluronic acid
- transfer of chip into skin (skin [1]): completely transferred into skin

Molecule: albumin
- heat stability in forming process [2]: resisted temperature of the micro implement forming process
- aggregation depths versus implement length (skin [3]): corresponded to the three length respectively
- deposition in skin (skin [3]): albumin aggregation in skin
